Measured values published in the supplement of paper PMC7125110.
± gives the standard error. For some assays here: This sample holds only a part of the variants without activity.

B1: glmS ribozyme (parent)
chain: AUAAAAGCGCCAGAACUACAGAAAUGUAGUUGACGAGGAGGAGGUUUAUCGAAUUUUCGGCGGAUGCCUCCAAA

Key:
Conditions in all cases: with glucosamine-6-phosphate
[1] = variants of: B1; test: kcat; higher = faster cleavage; RNA array
Outline: (§1)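 A hybridised Cy3 probe tracked barcoded ribozyme variants, transcribed in situ by E. coli RNA polymerase on sequenced MiSeq chips, at 37 °C. The variants received 40 μM to 10 mM glucosamine-6-phosphate in HEPES/KCl/Mg(OAc)2 buffer. kobs came from decay fits and kcat and KM from weighted Michaelis–Menten fits.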

[2] = variants of: B1; test: self-cleavage kobs at 160 uM GlcN6P; higher = faster cleavage; RNA array
Outline: as §1

[3] = variants of: B1; test: self-cleavage kobs at 2500 uM GlcN6P; higher = faster cleavage; RNA array
Outline: as §1

[4] = variants of: B1; test: KM; higher = weaker cofactor use; RNA array
Outline: as §1

[5] = variants of: B1; test: self-cleavage kobs at 640 uM GlcN6P; higher = faster cleavage; RNA array
Outline: as §1

[6] = variants of: B1; test: self-cleavage kobs at 10000 uM GlcN6P; higher = faster cleavage; RNA array
Outline: as §1

[7] = variants of: B1; test: self-cleavage kobs at 40 uM GlcN6P; higher = faster cleavage; RNA array
Outline: as §1

Variant | kcat [1] [s⁻¹] | self-cleavage kobs at 160 uM GlcN6P [2] [s⁻¹] | self-cleavage kobs at 2500 uM GlcN6P [3] [s⁻¹] | KM [4] [µM] | self-cleavage kobs at 640 uM GlcN6P [5] [s⁻¹] | self-cleavage kobs at 10000 uM GlcN6P [6] [s⁻¹] | self-cleavage kobs at 40 uM GlcN6P [7] [s⁻¹]
C10A U30A C68U | 7.99e-05 ± 2.3e-05 | 8.08e-05 ± 2.5e-05 | – | – | – | – | –
G9A C34G C67A | < 1e-05 | – | < 1e-05 | – | – | – | –
C11U A53C | 0.000605 ± 0.00015 | 3.37e-05 ± 1.3e-05 | 0.000307 ± 4.8e-05 | 3780 ± 1300 | 8.09e-05 ± 1e-05 | 0.000412 ± 6.8e-05 | –
C11U A53G | 0.00166 ± 9.2e-05 | 0.000156 ± 2e-05 | 0.00111 ± 0.00013 | 1400 ± 120 | 0.000513 ± 4.2e-05 | 0.00145 ± 0.00012 | 5.07e-05 ± 5.9e-06
C10U U30G | < 1e-05 | < 1e-05 | – | – | < 1e-05 | – | < 1e-05
C11U C16U C71U | 0.000649 ± 0.00014 | – | 0.000443 ± 0.00011 | 1100 ± 540 | 0.000215 ± 4.6e-05 | 0.000614 ± 0.00012 | 4.58e-05 ± 1.8e-05
A6G U47G | 0.0001 ± 1.3e-05 | – | 6.1e-05 ± 1.2e-05 | 1400 ± 520 | 3.81e-05 ± 1.5e-05 | 9.1e-05 ± 1.8e-05 | < 1e-05
G9U A14G | 1.09e-05 ± 5.1e-06 | – | < 1e-05 | – | – | < 1e-05 | < 1e-05
C11U A52G | 0.000164 ± 8e-06 | – | 0.000109 ± 1.8e-05 | 1690 ± 270 | 4.15e-05 ± 1e-05 | 0.000139 ± 1.1e-05 | –
C11U A52U | 5.56e-05 ± 4.4e-06 | – | 3.57e-05 ± 1.8e-05 | 1620 ± 690 | – | 4.77e-05 ± 8.4e-06 | –
C10U C61U G63A | < 1e-05 | – | – | – | – | < 1e-05 | –
C11U A15C G51U C70A | 6.95e-05 ± 2.4e-05 | – | 0.000111 ± 3.3e-05 | – | – | 5.08e-05 ± 2e-05 | 6.91e-05 ± 1.9e-05
A6U U69C | 8.65e-05 ± 8.1e-06 | – | 8.15e-05 ± 2.4e-05 | – | 6.1e-05 ± 2.4e-05 | 7.96e-05 ± 1.8e-05 | –
C11A C50U A64U | < 1e-05 | – | – | – | – | – | –
C11A A14U | 9.91e-05 ± 4.5e-06 | – | 6.89e-05 ± 9.1e-06 | 947 ± 180 | 4.4e-05 ± 1e-05 | 9.18e-05 ± 8.6e-06 | –
C11A A14C | 6.31e-05 ± 3.4e-06 | – | 3.05e-05 ± 1.3e-05 | 2820 ± 410 | – | 4.9e-05 ± 1.5e-05 | –
C10G A12C | 3.86e-05 ± 1.4e-05 | – | – | – | – | 2.24e-05 ± 9.4e-06 | –
